Experimental data reported in the supplement of paper PMC10567573.
± gives the standard deviation.

Assay: protein stability index of a GFP-peptide fusion (GPS, HEK-293T) (PSI 1-6); higher = more stable
[1] = treatment: DMSO, c terminus: a fixed tail appended
[2] = treatment: MLN4924 1 uM, 8 h, c terminus: a fixed tail appended
[3] = treatment: DMSO, c terminus: native
[4] = treatment: MLN4924 1 uM, 8 h, c terminus: native
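Further: 24-mer peptide tiles fused after GFP, lentivirally expressed, FACS-sorted into six equal bins by GFP/DsRed ratio, decoded by Illumina sequencing, PSI is the read-weighted mean bin number.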

Sequence	protein stability index [1]	protein stability index [2]	protein stability index [3]	protein stability index [4]
IANYELVYKDGEHGEEQRITIEPG [PTPRD]	4.64 ± 0.34	4.8 ± 0.28	–	–
IAYYSYIYSVVDLGMYQKVTSYCR [SLC19A2]	3.28 ± 0.38	2.62 ± 0.071	–	–
ICLEMFTKPVVILPCQHNLCRKCA [TRIM63]	2.2 ± 0.054	2.41 ± 0.13	–	–
IDILWRQDIDLGAGREVFDYSHRQ [NFE2L1]	2.24 ± 1	2.49 ± 0.34	–	–
IENRDVAKSVLKERGLKKIRLGIE [BTBD10]	3.36 ± 0.28	3.32 ± 0.13	–	–
IFRCFCPVFLHSQMLWELVLLGEP [DENND6A]	3.17 ± 0.39	2.87 ± 0.33	–	–
IGAAPFSGRRNWCSYVVTRTISCH [EMID1]	2.23 ± 0.27	2.07 ± 0.23	–	–
IGAFLNLVVLRFLTMNSEDERRDA [KCNK9]	3.27 ± 0.77	3.02 ± 0.6	–	–
IGGSGFLGQHMVEQLLARGYAVNV [NSDHL]	2.16 ± 0.054	2.23 ± 0.2	–	–
IGTMAGITTPIIDTFKVPKEMFTV [SLC6A17]	2.45 ± 0.3	2.71 ± 0.24	–	–
IHFDSYITCVSGAIVDLISRQYDK [FBXO33]	2.7 ± 0.47	2.81 ± 0.53	–	–
IIEELGEQRDQLERTKSRLVNTSE [VTI1B]	4.57 ± 0.41	4.63 ± 0.15	–	–
IKMILKMVQLDSIEDLEVTCTWKL [PRAME]	2.89 ± 0.29	2.99 ± 0.42	–	–
ILNLERDVEDLQRDKARLLREKVE [NFE2L1]	3.96 ± 0.51	3.93 ± 0.41	–	–
ILSKMPKPKPPPNSEGEQGPNGSQ [CCNC]	5.07 ± 0.23	5.1 ± 0.12	–	–
IMGNLLIIVTIMASQSLGSPMYFF [OR4A15]	3.35 ± 0.29	3.52 ± 0.3	–	–
IPAVGSSLSEALDLIESDPDAWCD [MYBL2]	4.47 ± 0.58	4.58 ± 0.23	–	–
IRLQAELEEGENPVPAFQSDGTDE [SMG5]	5.27 ± 0.14	5.12 ± 0.23	–	–
IRSPRPASVATWAIFVHRVGQPSI [CTBP1-DT]	2.46 ± 0.5	2.47 ± 0.31	–	–
ISCPTCRRETVLFTDYGLAALAVN [RNF208]	2.15 ± 0.13	2.22 ± 0.28	–	–
ISPKARCLIRSLLRREPSERLTAP [TRIB1]	2.22 ± 0.24	2.33 ± 0.39	–	–
ISQYEDDLPPPPADPVLDLPLPPP [APBB1IP]	4.93 ± 0.18	4.913 ± 0.048	–	–

Sequence	protein stability index [1]	protein stability index [2]	protein stability index [3]	protein stability index [4]
ITFPSLESCEEKNQLILTASADRT [WDR41]	4.02 ± 0.29	4.1 ± 0.35	–	–
ITIGYRVYHSYDLPWFRTLSWYFL [CDS1]	2.92 ± 0.42	3.1 ± 0.6	–	–
ITLFLLGAAKGKEVCYEDLGCFSD [PNLIPRP1]	2.74 ± 0.43	3.24 ± 0.43	–	–
IVADIELENVLDPDSFYELKSQPL [TFE3]	2.65 ± 0.47	3.09 ± 0.51	–	–
IVADILLYVVIPTRRSTAEAFQIV [SPNS1]	2.97 ± 0.34	3.1 ± 0.18	–	–
IVAIIPYFITLGTEIAEQEGNQKG [KCNA1]	2.87 ± 0.71	2.55 ± 0.48	–	–
IVTVHYGCASFIYLRPQSNYSSSQ [OR10K2]	2.92 ± 0.39	2.95 ± 0.56	–	–
IYNSHLVVHQRVHSGEKPYKCSDC [ZNF232]	2.9 ± 0.23	3.02 ± 0.28	–	–
IYNSNIFTDPFFIVETLCIIWFSF [KCNA1]	3.23 ± 0.2	3.17 ± 0.29	–	–
KAAEGGLSSPEFSELCIWLGSQIK [FAM98B]	2.08 ± 0.12	2.03 ± 0.4	–	–
KADENNGFGSKNTAFCTHVFPETA [TBX5]	4.01 ± 0.47	3.86 ± 0.2	–	–
KCDQPFFWNFKQMWDSKKIGLRQH [WDFY2]	2.29 ± 0.36	2.65 ± 0.42	–	–
KDPYGKPVDLWACGVILYILLVGY [CAMK2A]	3.16 ± 0.97	3.07 ± 0.32	–	–
KEDKIMLDDRKNEEDGGADEHEHP [MIA2]	5.52 ± 0.063	5.55 ± 0.19	–	–
KENIEKDEDDVDQELANIDPTWIE [SRPK2]	5.56 ± 0.28	5.53 ± 0.2	–	–
KFSIPDLDRHQLPLDDALLSFAHA [DPCD]	2.84 ± 0.21	2.94 ± 0.35	–	–
KGERGEDSSEEKHLEEPGETQNAF [CHGB]	5.61 ± 0.19	5.62 ± 0.13	–	–
KIGNSAFARYPNGVVVHYFCSKEV [VPS39]	2.41 ± 0.48	2.33 ± 0.32	–	–
KILGYLNTNVLSRDLIPPHVNFSH [SLC6A17]	2.2 ± 0.33	2.375 ± 0.022	–	–
KIMIIICCVILGIVIASTVGGIFA [STX1A]	2.04 ± 0.38	2.23 ± 0.41	–	–
KKCCIPETRRRMEMAFNTRCKEEN [NLN]	3.57 ± 0.25	3.75 ± 0.22	–	–
KKHNVTAVVRLNKKIYEAKRFTDA [CDC14A]	2.73 ± 0.2	2.49 ± 0.24	–	–

Sequence	protein stability index [1]	protein stability index [2]	protein stability index [3]	protein stability index [4]
KKHYRLQFYMFGWTHVTLLIVVTQ [CDS2]	2.89 ± 0.55	2.58 ± 0.71	–	–
KKREFRFHPIKETVVEEPVDITPY [INTS3]	2.83 ± 0.51	3.59 ± 0.68	–	–
KKRKRQEKIDKLEQDMERRKADFK [ZC3H15]	4.7 ± 0.4	4.77 ± 0.1	–	–
KKRRLPPVHIHPAFARQAAQEPSA [FOXJ1]	3.87 ± 0.25	3.82 ± 0.36	–	–
KLHDFFSYLMDHFIPSSHNDRDFL [PPEF2]	2.46 ± 0.51	2.53 ± 0.64	–	–
KLSEHLRYCDSILREMLSKKHAAY [BRD3]	2.28 ± 0.21	2.14 ± 0.21	–	–
KMPVLKAEASHYNSDLNNLLFCCQ [RHOBTB3]	2.27 ± 0.41	2.29 ± 0.15	–	–
KNLFGPPLESAFDHEDFTGSSSLG [FCHO1]	4.22 ± 0.13	4.37 ± 0.7	–	–
KNTEVSSMECEKNLYWICNKPYK [CD69]	–	–	2.97 ± 0.2	2.86 ± 0.61
KNYNYGMHYCAVPPRGPLGQGAMF [NEUROD6]	2.18 ± 0.44	2.47 ± 0.34	–	–
KPTRRDASPESPSKKGPIPIRRH [GNAS]	–	–	4.71 ± 0.19	5.21 ± 0.49
KQDSLVILTIMATLKIRNSNFYTV [TMEM106C]	3.25 ± 0.41	3 ± 0.67	–	–
KQEQSIISEYEKSLQFDEKCLSIM [RPAIN]	3.67 ± 0.12	3.69 ± 0.23	–	–
KQLRQVTKEEGLALAREFSCPFFE [RIT1]	3.27 ± 0.29	3.49 ± 0.33	–	–
KQSFLDGGKGHHLPSENLGKEPLD [TOR1AIP2]	5.13 ± 0.11	5.01 ± 0.21	–	–
KRDDYLEWPEYFMAVAFLSAQRSK [DCTD]	2.27 ± 0.19	2.12 ± 0.35	–	–
KSLEIEEKINKIKWLPQQNAAHSL [PPP2R2C]	3.66 ± 0.21	3.67 ± 0.13	–	–
KSQRQPRTSPSCAFRSDDTKGHPR [CDC14A]	4.49 ± 0.16	4.62 ± 0.2	–	–
KTERINALELLGATFVDKKRDLLG [FEM1C]	3.23 ± 0.1	3.4 ± 0.22	–	–
KTLYVGNLSRDVTEALILQLFSQI [TIA1]	2.6 ± 0.51	2.73 ± 0.42	–	–
KVDGPRSPSYGRSRSRSRSRSRSR [SRSF1]	5.27 ± 0.26	5.46 ± 0.14	–	–
